Results taken from patent publication US20220396632A1 (VERSEAU THERAPEUTICS, published 2022).
Non-standard residues stand in square brackets, D forms with d. No end group written: not given here. *: point of attachment. Biotin = O=C1N[C@H]2[C@H](CS[C@H]2CCCCC(=O)*)N1; sY = N[C@@H](Cc1ccc(OS(=O)(=O)O)cc1)C(=O)O

How the values were obtained:
[1] = molecular target: T1, Human fibrinogen protein (ThermoFisher, RP-43142) (human, UniProt P02671 20-629; P02675 31-491; P02679 27-453, limits assumed, natural sulfotyrosines); assay: ELISA, 50 nM mAb
T1 construct: mature; Native dimer with 3 pairs of non-identical chains; also called gamma-fibrinogen; γ fibrinogen protein
T1 sequence (looked up) 1: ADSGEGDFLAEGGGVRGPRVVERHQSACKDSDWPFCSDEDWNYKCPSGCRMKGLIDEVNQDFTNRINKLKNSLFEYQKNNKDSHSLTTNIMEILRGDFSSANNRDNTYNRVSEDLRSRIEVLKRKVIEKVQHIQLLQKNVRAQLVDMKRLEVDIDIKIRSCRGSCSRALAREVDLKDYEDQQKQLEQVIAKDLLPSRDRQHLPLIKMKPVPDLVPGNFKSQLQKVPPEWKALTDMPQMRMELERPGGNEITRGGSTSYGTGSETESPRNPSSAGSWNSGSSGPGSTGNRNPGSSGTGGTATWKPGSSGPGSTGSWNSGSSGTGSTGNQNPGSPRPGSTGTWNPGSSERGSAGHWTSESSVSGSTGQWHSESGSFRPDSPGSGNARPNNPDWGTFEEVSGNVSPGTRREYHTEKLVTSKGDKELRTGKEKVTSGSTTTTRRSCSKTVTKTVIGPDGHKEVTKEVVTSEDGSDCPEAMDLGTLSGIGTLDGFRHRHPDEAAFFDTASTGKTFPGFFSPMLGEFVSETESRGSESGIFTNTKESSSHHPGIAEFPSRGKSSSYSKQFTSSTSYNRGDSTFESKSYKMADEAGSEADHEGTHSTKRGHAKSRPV
T1 sequence (looked up) 2: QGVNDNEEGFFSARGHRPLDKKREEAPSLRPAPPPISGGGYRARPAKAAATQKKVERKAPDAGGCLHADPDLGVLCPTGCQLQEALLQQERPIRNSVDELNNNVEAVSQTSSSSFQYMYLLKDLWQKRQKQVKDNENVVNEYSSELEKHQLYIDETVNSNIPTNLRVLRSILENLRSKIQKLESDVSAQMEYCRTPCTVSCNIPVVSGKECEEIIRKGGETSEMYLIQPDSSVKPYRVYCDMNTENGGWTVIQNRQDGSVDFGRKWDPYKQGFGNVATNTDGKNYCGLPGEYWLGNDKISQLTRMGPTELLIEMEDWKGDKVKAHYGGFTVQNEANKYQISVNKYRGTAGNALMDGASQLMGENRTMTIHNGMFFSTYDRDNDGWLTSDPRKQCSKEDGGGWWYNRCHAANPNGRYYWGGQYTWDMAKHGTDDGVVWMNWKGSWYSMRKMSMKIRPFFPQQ
T1 sequence (looked up) 3: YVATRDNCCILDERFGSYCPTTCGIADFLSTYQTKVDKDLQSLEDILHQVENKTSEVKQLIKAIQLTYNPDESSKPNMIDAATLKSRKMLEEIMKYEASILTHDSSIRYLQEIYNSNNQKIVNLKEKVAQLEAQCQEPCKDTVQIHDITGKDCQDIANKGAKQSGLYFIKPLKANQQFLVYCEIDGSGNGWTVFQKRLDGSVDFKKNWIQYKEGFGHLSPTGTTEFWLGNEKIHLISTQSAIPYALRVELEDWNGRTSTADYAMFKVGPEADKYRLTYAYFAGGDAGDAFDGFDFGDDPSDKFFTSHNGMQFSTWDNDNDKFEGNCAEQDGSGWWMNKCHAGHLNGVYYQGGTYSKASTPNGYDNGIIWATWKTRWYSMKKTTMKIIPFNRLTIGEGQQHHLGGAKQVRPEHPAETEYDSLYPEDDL
Description: (§1) Recombinant PSGL-1-hFc1 chimera protein consisting of PSGL-1's extracellular domain (ECD) served as a positive control. […] Primary antibody was added (25 ul per well) in duplicate at 50 nM in assay buffer (blocking buffer containing 0.05% Tween®20) into test and control (just blocked) wells and the plate incubated for 45 min at 37° C.

[2] = molecular target: T2, Sulfotyrosine D6 biotin peptide (human); assay: ELISA, 50 nM mAb
T2 construct: also called D6 peptide
T2 peptide: ENSSFY[sY][sY]D[sY]LDEVAFGGK(Biotin)
Description: as §1

SulfoTyr C4 peptide = molecular target: T3, SulfoTyr C4 peptide (not fully specified; Y4, Y7 and Y9 sulfated (SO3); C-terminal biotin); assay: ELISA, 50 nM mAb
T3 construct: also called C4 alpha chain peptide; human sulfotyrosinylated C4 peptide
T3 peptide: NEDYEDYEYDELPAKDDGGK
Description: as §1

[3] = molecular target: T4, Recombinant human PSGL-1(ECD)-hFc1 (R&D Systems, Cat. 3345-PS) (human, UniProt Q14242 42-305); assay: ELISA, 50 nM mAb
T4 construct: Bought; Gln42-Val295 counted on AAC50061; also called PSGL-1-Fc; PSGL-1-hFc1 chimera; not shown: human IgG1 Fc, Pro100-Lys330
T4 sequence: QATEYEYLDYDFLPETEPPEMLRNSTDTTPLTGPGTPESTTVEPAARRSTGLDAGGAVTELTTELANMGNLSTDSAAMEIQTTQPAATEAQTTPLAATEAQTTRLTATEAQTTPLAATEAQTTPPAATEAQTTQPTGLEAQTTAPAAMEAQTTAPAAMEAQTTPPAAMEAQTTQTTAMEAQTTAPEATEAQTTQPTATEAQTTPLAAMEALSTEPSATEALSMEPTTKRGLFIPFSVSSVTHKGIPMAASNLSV
Description: as §1

SulfoCCK biotin peptide = molecular target: T5, SulfoCCK biotin peptide (human); assay: ELISA, 50 nM mAb
T5 construct: also called sulfotyrosine CCK peptide
T5 peptide: SHRISDRD[sY]MGWMDFGGK(Biotin)
Description: as §1

[4] = molecular target: T6, Human complement C4 protein (Millipore Sigma, Cat. 204886) (human, UniProt P0C0L4 20-675; P0C0L4 680-1446; P0C0L4 1454-1744, limits assumed, natural sulfotyrosines); assay: ELISA, 50 nM mAb
T6 construct: mature
Description: as §1

[5] = molecular target: T7, Sulfotyr fibrinogen γ peptide (not fully specified; Y8 and Y12 sulfated (SO3); C-terminal biotin); assay: ELISA, 50 nM mAb
T7 construct: also called Fibrinogen gamma peptide; human sulfotyrosinylated fibrinogen peptide
T7 peptide: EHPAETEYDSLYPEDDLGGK
Description: as §1

[6] = molecular target: T8, Sulfotyrosine CCR2b biotin peptide (human); assay: ELISA, 50 nM mAb
T8 construct: also called CCR2b peptide
T8 peptide: TTFFD[sY]D[sY]GAPSHGGK(Biotin)
Description: as §1

[7] = molecular target: T9, Biotin PSGL-1(42-62) peptide, unmodified (human, C-terminal Lys-biotin); assay: ELISA, immobilized biotin peptide
T9 construct: Residues 42-62 followed by GGGK-biotin; also called WT; wild-type
T9 peptide: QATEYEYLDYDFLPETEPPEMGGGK
Summary of the method: (§2)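 In this ELISA, half-well high binding plates (Corning Cat. #3690) received 3 ug/mL/25 ul per well of biotin-tagged PSGL-1 peptides covering residues 42 to 62, diluted in PBS, pH 7.4, and coated overnight at 4° C. Duplicate readings for each antibody were averaged and the average assay background was subtracted. PSGL-1 protein or peptide was the positive control.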

[8] = molecular target: T10, Biotin Y46,48,51(SO3) PSGL-1(42-62) peptide (human, sulfotyrosine at Y46, Y48 and Y51; C-terminal Lys-biotin); assay: ELISA, immobilized biotin peptide
T10 construct: also called fully sulfated N-terminal PSGL-1 peptide
T10 peptide: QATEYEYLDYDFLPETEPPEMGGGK
Summary of the method: as §2

[9] = molecular target: T11, Cynomolgus PSGL-1(ECD)-hFc1 (cynomolgus macaque); assay: ELISA, 20 nM mAb on plate cyno PSGL-1(ECD)-Fc
T11 construct: also called Cyno PSGL1-Fc; Cyno PSGL-1(ECD)-Fc
Description: Antibody binding to plate-immobilized cyno PSGL-1(ECD) was determined either at one concentration (20 nM) or by generating full antibody binding curves (0.003-200 nM). A typical ELISA was performed by overnight coating at 4° C. with 3 ug/mL/25 ul per well of recombinant cyno PSGL-1(ECD) protein in PBS, pH 7.4, in high binding half-well plates (Corning Cat. #3690). […] Anti-PSGL-1 IgG in assay buffer (blocking buffer containing 0.05% tween 20) was added into test and control wells (20 nM/25 ul/well) and the plate incubated for 45 min at 37° C. […] The plate was incubated for 45 min at 37° C., and mAb bound to plate-immobilized target determined at A450 nm using HRP substrate (3,3′,5,5′-tetramethylbenzidine (TMB)). For each antibody, duplicate values were averaged and assay background subtracted.

T11 sequence (chain, as listed by the source limits assumed): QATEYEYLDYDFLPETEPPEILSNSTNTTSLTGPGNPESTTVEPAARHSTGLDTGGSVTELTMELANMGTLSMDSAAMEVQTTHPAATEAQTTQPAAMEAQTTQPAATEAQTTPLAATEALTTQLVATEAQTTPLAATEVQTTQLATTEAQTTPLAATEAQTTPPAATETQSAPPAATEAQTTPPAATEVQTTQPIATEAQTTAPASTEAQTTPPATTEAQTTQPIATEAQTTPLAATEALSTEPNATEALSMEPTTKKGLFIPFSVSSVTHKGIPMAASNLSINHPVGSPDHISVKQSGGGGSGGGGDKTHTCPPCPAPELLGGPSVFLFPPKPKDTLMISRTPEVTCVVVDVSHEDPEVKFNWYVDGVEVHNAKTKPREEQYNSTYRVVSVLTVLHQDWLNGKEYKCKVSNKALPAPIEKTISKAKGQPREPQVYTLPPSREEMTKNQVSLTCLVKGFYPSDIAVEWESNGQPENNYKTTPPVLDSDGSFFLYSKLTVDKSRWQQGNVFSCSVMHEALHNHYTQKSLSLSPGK
T6 sequence (P0C0L4 20-675 limits assumed, form in doubt, chain 1 of 3): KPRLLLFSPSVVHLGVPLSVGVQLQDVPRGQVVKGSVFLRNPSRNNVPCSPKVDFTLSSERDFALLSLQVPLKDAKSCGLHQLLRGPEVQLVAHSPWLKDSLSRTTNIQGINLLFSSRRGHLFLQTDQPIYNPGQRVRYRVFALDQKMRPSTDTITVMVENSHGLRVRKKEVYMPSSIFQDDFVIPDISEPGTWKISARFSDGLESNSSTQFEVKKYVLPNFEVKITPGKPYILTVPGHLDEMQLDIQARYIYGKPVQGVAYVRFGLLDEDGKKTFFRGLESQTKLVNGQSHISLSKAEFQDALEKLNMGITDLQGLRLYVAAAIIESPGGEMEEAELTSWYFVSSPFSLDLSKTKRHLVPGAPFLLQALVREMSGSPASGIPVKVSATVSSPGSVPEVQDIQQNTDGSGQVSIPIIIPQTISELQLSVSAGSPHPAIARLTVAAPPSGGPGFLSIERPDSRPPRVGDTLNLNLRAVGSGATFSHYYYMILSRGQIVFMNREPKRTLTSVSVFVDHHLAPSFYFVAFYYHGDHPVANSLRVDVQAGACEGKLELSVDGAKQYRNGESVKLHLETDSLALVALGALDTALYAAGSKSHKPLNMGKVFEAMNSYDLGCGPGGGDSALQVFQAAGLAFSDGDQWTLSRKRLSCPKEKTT
T6 sequence (P0C0L4 680-1446 limits assumed, form in doubt, chain 2 of 3): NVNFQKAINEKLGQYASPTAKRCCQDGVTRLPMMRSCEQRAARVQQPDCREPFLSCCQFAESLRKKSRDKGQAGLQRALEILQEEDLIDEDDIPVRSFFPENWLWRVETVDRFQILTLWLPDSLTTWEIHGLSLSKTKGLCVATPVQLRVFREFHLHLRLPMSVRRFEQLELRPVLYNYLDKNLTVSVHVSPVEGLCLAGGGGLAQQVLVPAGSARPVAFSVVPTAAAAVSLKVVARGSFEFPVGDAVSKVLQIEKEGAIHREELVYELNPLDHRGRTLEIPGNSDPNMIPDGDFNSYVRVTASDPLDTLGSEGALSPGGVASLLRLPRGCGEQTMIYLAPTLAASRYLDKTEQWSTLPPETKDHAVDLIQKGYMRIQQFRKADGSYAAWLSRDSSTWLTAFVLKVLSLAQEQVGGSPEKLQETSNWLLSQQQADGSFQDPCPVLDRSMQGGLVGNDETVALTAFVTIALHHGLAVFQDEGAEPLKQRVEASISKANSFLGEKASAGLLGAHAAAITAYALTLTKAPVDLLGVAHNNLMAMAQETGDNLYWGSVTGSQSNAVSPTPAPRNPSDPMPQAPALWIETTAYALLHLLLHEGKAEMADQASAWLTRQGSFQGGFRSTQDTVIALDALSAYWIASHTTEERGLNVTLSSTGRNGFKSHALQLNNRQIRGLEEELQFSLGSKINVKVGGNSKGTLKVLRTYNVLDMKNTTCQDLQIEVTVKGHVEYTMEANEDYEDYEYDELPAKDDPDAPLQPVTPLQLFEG
T6 sequence (P0C0L4 1454-1744 limits assumed, form in doubt, chain 3 of 3): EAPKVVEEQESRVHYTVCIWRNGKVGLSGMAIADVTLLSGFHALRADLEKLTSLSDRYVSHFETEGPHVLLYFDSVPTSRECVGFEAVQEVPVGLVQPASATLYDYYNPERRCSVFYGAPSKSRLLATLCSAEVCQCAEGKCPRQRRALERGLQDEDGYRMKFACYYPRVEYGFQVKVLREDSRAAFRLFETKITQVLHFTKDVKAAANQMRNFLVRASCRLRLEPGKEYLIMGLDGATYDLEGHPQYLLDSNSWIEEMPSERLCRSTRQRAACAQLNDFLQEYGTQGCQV

Binder | binding normalized to PSGL-1 [1] | binding normalized to PSGL-1 [2] | binding normalized to PSGL-1 (SulfoTyr C4 peptide) | A450nm [3] [A450nm] | binding normalized to PSGL-1 (SulfoCCK biotin peptide) | binding normalized to PSGL-1 [4] | binding normalized to PSGL-1 [5] | binding normalized to PSGL-1 [6] | EC50 [7] [nM] | A450nm, 20 nM mAb [8] [A450nm] | EC50 [8] [nM] | A450nm [9] [A450 nm] | binding result [1]
03E05 (antibody, IgG4, V domains shown) VH: EVKLLESGGDLAQTGGSLRLSCVASGFTFSSYPMSWVRQAPGKGLEWVSAIRRSGATQYADSVKGRFTISRDNSKNTVYLQMNSLRVEDTAVYYCAKGTYDLGQGTLVTVSS VL: DIVMTQTPLSLPVTLGQPASISCRSSQSLVYSDGNTYLNWFHQRPGQSPRRLIYKVSNRDSGVPDRFSGSGSDTEFTLKISRVEAEDVGVYYCMQATHWPLTFGGGTKVEIK | 0.05 | 0.52 | 0.61 | 2.28 | 0.23 | 0.47 | 0.59 | 0.27 | 6.2 | 2.61 | 0.16 | 0.39 | 
09B09 (antibody, IgG4, V domains shown) VH: EVKLLESGGGLVQPGGSLRLSCAASGITFSTYAMMWVRQAPGKGLEWVSGISGSGASRYYADSVKGRFTISRDNSKNMLYLQMNSLRAEDTAVYYCAKKVLGRRKQYFDDWGQGTLVTVSS VL: DIVMTQSPLSLPVTPGEPASISCRSSQSLLHSNGYNYLDWYLQRPGQSPQLLIYLGSHRASGVPDRFSGSGSGTEHTLKITTVAAEDVGVYYCMQALQSPPTFGQGTRLDIK | -0.15 | 0.56 | 0.35 | 1.96 | 0.25 | 0.22 | 0.3 | 0.26 | ~0.05 | 2.8 | 0.07 | 1.77 | no binding (tested: 50 nM)
09D11 (antibody, IgG4, V domains shown) VH: QVQLVESGGGFIQPGGSLRLSCAASGLTFSNYAMTWVRQAPGKGLEWVSTISGGGGNTYYTDSVKGRFTISRDNSKNTLYLQMNSLKAEDTAVYRCAKGLAAALFDYWGQGTLVTVSS VL: DIVLTQSPDSLPVTPGEPASISCRSSRSLLHSNGHNFLAWYLQKPGQSPHLLIYLGSNRASGVPDRFSGSGSGTDFTLKISRVEAEDVGIYYCMQALQTPITFGQGTRLDIK | 0.07 | 0.26 | 0.05 | 2.65 | 0.06 | 0.32 | 0.09 | 0.04 | ~0.05 | 2.79 | 0.05 | 2.11 | 
